B1: VHH6, CD7-specific nanobody (VHH)
VHH: DVQLQESGGGLVQAGGSLRLSCAVSGYPYSSYCMGWFRQAPGKEREGVAAIDSDGRTRYADSVKGRFTISQDNAKNTLYLQMNRMKPEDTAMYYCAARFGPMGCVDLSTLSFGHWGQGTQVTVSI
notes: Selected from a phage library of animals immunized with Jurkat cells (llama in the results, Camelus dromedarius in the methods); Monomer by SEC; also called parental nanobody; source: E. coli BL21 (DE3), pET28a, purified (Ni-NTA)
B2: VHH10, CD7-specific nanobody (VHH)
VHH: DVQLQESGGGSVQAGGSLRLSCAASGYTHSSYCMAWFRQAPGREREGVASIDSDGTTSYADSVKGRFTISQDNAKNTLYLQMNSLKPEDTAMYYCAARFGPMGCVDLSTLSFGHWGQGTQVTVSI
notes: source: E. coli BL21 (DE3), pET28a, purified (Ni-NTA)
B3: CD7 on CD7-positive T-cell lines Jurkat and CEM (receptor)
chain: AQEVQQSPHCTTVPVGASVNITCSTSGGLRGIYLRQLGPQPQDIIYYEDGVVPTTDRRFRGRIDFSGSQDNLTITMHRLQLSDTGTYTCQAITEVNVYGSGTLVLVTEEQSQGWHRCSDAPPRASALPAPPTGSALPDPQTASALPDPPAASALPAALAVISFLLGLGLGVACVLARTQIKKLCSWRDKNSAACVVYEDMSHSRCNTLSSPNQYQ
notes: CD7, cell surface glycoprotein of the immunoglobulin superfamily, endogenous on the human T-ALL cell lines Jurkat and CEM; Also used as the target in the functional rows on patient-derived primary AML and T-ALL cells; source: endogenous, on Jurkat and CEM cells

Key:
Conditions in all cases: one partner purified
[1] = molecular target: B3; experiment: flow cytometry on cells; nanobody or immunotoxin at different concentrations incubated with Jurkat cells on ice; detected with APC anti-HA or Alexa Fluor 488 anti-His antibody; saturation curves, Scatchard plots, nonlinear regression (Prism)
[2] = molecular target: T1, PG001, monovalent CD7 nanobody-based immunotoxin (VHH6-PE38-KDEL) (Pseudomonas (species )); experiment: flow cytometry on cells
T1 construct: also called pET28a-VHH6-PE38-KDEL; not shown: His6, N-terminal, kept

[3] = molecular target: T2, PG002, bivalent CD7 nanobody-based immunotoxin (dVHH6-PE38-KDEL) (Pseudomonas (species )); experiment: flow cytometry on cells
T2 construct: also called pET28a-dVHH6-PE38-KDEL; not shown: His6, N-terminal, kept

Binder | Kd [1] [nM] | Kd [2] [nM] | Kd [3] [nM]
B1 | 15.4 |  | 
B2 | 29.6 |  | 
B3 |  | 16.7 | 3.61

Reference: article PMC5085138, “Novel CD7-specific nanobody-based immunotoxins potently enhanced apoptosis of CD7-positive malignant cells” (Oncotarget, 2016)
